Source: patent US8357523B2, “Beta-glucosidase variant enzymes and related polynucleotides” (Codexis, Inc., priority 2009, dated 2013)

What was measured:
[1] = High throughput cellobiose assay: fold improvement in cellobiase activity of CelA variants over a control enzyme (Tables 2A-2D, 3, 5, 6, 7); type: biochemical; settings: for Fold Improvement over Control Variant: 3.3 g/l cellobiose, 65° C. and pH 5 (incubation overnight), relative to Control #5, Variant No. 366 (SEQ ID NO: 9)
[2] = Enzyme stability: residual activity on pNPG after pre-incubation at high temperature and low pH; type: biochemical; settings: residual activity on pNPG at pH 7, 30° C.
Method: Residual activity is determined by exposing the enzyme to stress conditions of elevated temperature for a period of time and then determining the β-glucosidase activity. The β-glucosidase activity of the enzyme exposed to stress conditions (“a”) is compared to that of a control in which the enzyme is not exposed to the stress conditions (“b”), and residual activity is equal to the ratio a/b. Exemplary conditions for determining thermostability are provided in Examples 9 and 13. In one embodiment the enzymes are exposed to stress conditions of 50° C. at pH 5.5 or 55° C. at pH 5.0 or 55° C. at pH 5.5, or 65° C. at pH 5.0 for about 1 hour, and assayed at 30° C., pH 7, for about 0.1 hour.
A colorimetric pNPG (p-nitrophenyl-(β-D-glucopyranoside)-based assay was used for measuring β-glucosidase activity. In a total volume of 100 μL, 20 μL clear media supernatant containing β-glucosidase enzyme was added to 4 mM pNPG (Sigma-Aldrich, Inc. St. Louis, Mo.) solution in 50 mM sodium phosphate buffer at pH6.5. The reactions were incubated at pH 6.5, 45° C. for 1 hour. The reaction mixture was quenched with 100 μL of 1M sodium carbonate pH 11 solution. The absorbance of the solution was measured at 405 nm to determine the conversion of pNPG to p-nitrophenol. The release of p-nitrophenol (ε=17,700 M−1 cm−1) was measured at 405 nm to calculate β-glucosidase activity. Detectable β-glucosidase activity was observed under high throughput screening conditions (pH 7, 50° C.).
Four CelA variants and wildtype CelA were characterized to determine their stabilities at high temperature (55° C.) and low pH (pH5.5) using the method of Example 5A. The samples containing various CelA variant enzymes were pre-incubated at pH 5.5, 55° C. for 0-6 hrs. The residual enzyme activity after the thermal challenge was measured using pNPG as substrate at pH 7, 30° C. for 1 hr. […] The mutations listed in the table are indicated relative to SEQ ID NO: 4, the wildtype CelA. These sequences included residues GTS prior to the N-terminus of SEQ ID NO: 4 (prepared as described in Example 1). […]

B1: Variant No. 5 (protein)
chain: STAIAQEGAAPAAILHPEKWPRPATQRLIDPAVEKRVDALLKQLSVEEKVGQVIQGDIGTITPEDLRKYPLGSILAGGNSGPNGDDRAPPKEWLDLADAFYRVSLEKRPGHTPIPVLFGIDAVHGHGNIGSATIFPHNIALGATRDPELLRRIGEVTAVEMAATGIDWTFAPALSVVRDDRWGRTYEGFSEDPEIVAAYSAAIVEGVQGKFGSKDFMAPGRIVASAKHFLADGGTDQGRDQGDARISEDELIRIHNAGYPPAIDAGVLTVMASFSSWQGIKHHGHKQLLTDVLKGQMGFNGFIVGDWNAHDQVPGCTKFNCPTSLIAGLDMYMAADSWKQLYENTLAQVKDGTIPMARLDDAVRRILRVKVLAGLFEKPAPKDRPGLPGLETLGSPEHRAVGREAVRKSLVLLKNDKGTLPLSPKARVLVAGDGADNIGKQSGGWTISWQGTGNRNDEFPGATSILGGIRDAVADAGGSVEFDVAGQYKTKPDVAIVVFGEEPYAEFQGDVETLEYQPDQKQDLALLKKLKDQGIPVVAVFLSGRPMWVNPELNASDAFVAAWLPGTEGGGVADVLFTDKAGKVQHDFAGKLSYSWPRTAAQTTVNRGDADYNPLFAYGYGLTYKDKSKVGTLPEESGVPAEARQNAGIYFRAGALRLPGRFL
[1]; assay of Example 7
  activity (e.g., thermoactivity) over the wildtype A. irakense β-glucosidase: improved activity
[2]; pre-incubation 10 mins at pH 5.5, 55° C., 1 hr
  % residual activity after 10 mins @ pH 5.5, 55° C.: 0%
[2]; pre-incubation 1 hour at pH 5.5, 55° C.
  % residual activity after 1 hour @ pH 5.5, 55° C.: 0%
[2]; pre-incubation 6 hours at pH 5.5, 55° C., 1 hr
  % residual activity after 6 hours @ pH 5.5, 55° C.: 0%

B2: 423 (protein)
chain: SAAITQEGAAPAAMLHPEKWPRPATQRLIDPAVEKRVDALLKQLSVEEKVGQVIQGDIGTITPEDLRKYPLGSILAGGDSGPNGDDRAPPKEWLDLADAFYRVSLEKRDGHTPIPVLFGIDAVHGHNNIGSATIFPHNIALGMTRDPELLRRIGEVTAEEMAATGIDWTFAPALSVPRDDRWGRTYEGFSEDPEIVASYSAAIVEGFQGKYGSKDFMAPGRAVACAKHFLADGGTDQGRDQGDARISEDELIRIHNAGYPPAIDAGVLTVMASFSSWQGIKHHGHKQLLTDVLKGQMGFNGFIVGDWNAHDQVPGCTKFNCPTSLIAGLDMYMAADSWKQLYENTLAQVKDGTIPMARLDDAVRRILRVKVLAGLFEKPAPKDRPGLPGLETLGSPEHRTVGREAVRKSLVLLKNDKGTLPLSPKARVLVAGDGADNIGKQSGGWTISWQGTGNRNDEFPGATSILGGIRDAVADAGGSVEFDVAGQYKTKPDVAIVVFGEEPYAEFRGDVETLEYQPDQKQDLTLLKKLKDQGIPVVAVFLSGRPMWVNPELNASDAFVAAWLPGTEGGGVADVLFTDKAGKVQHDFAGKLSYSWPRTAAQTTVNRGDADYNPLFAYGYGLTYKDKSKVGTLPEESGVPAEARQNAGIYFRAGALRLPGRFL
modifications: truncated; signal peptide F-10T
[1]
  Fold Improvement over Control Variant: ++ (++ = 1.1 to 2.0 fold improvement over control Variant No. 366)

B3: 424 (protein)
chain: SAAITQEGAAPAPMLHPEKWPRPATQRLIDPAVEKRVDALLKQLSVEEKVGQVIQGDIGTITPEDLRKYPLGSILAGGDSGPNGDDRAPPKEWLDLADAFYRVSLEKRPGHTPIPVLFGIDAVHGHNNIGSATIFPHNIALGMTRDPELLRRIGEVTAEEMAATGIDWTFAPALSVPRDDRWGRTYEGFSEDPEIVASYSAAIIEGFQGKYGSKDFMAPGRAVACAKHFLADGGTDQGRDQGDARISEDELIRIHNAGYPPAIDAGVLTVMASFSSWQGIKHHGHKQLLTGVLKGQMGFNGFIVGDWNAHDQVPGCTKFNCPTSLIAGLDMYMAADSWKQLYENTLAQVKDGTIPMARLDDAVRRILRVKVLAGLFEKPAPKDRPGLPGLETLGSPEHRAVGREAVRKSLVLLKNDKGTLPLSPKARVLVAGDGADNIGKQSGGWTISWQGTGNRNDEFPGATSILGGIRDAVADAGGSVEFDVAGQYKTKPDVAIVVFGEEPYAEFRGDVETLEYQPDQKQDLTLLKKLKDQGIPVVAVFLSGRPMWVNPELNASDAFVAAWLPGTEGGGVADVLFTDKAGKVQHDFAGKLSYSWPRTAAQTTVNRGDADYNPLFAYGYGLTYKDKSKVGTLPEESGVPAEARQNAGIYFRAGALRLPGRFL
modifications: truncated; signal peptide F-10T
[1]
  Fold Improvement over Control Variant: ++ (++ = 1.1 to 2.0 fold improvement over control Variant No. 366)

B4: 427 (protein)
chain: SAAITQEGAAPAAMLHPEKWPRPATQRLIDPAVEKRVDALLKQLSVEEKVGQVIQGDIGTITPEDLRKYPLGSILAGGDSGPNGDDRAPPKEWLDLADAFYRVSLEKRPGHTPIPVLFGIDAVHGHNHIGSATIFPHNIALGMTRDPELLRRIGEVTAEEMAATGIDWTFAPALSVPRDDRWGRTYEGFSEDPEIVASYSAAIVEGFQGKYGSKDFMAPGRAVACAKHFLADGGTDQGRDQGDARISEDELIRIHNAGYPPAIDAGVLTVMASFSSWQGIKHHGHKQLLTDVLKGQMGFNGFIVGDWNAHDQVPGCTKFNCPTSLIAGLDMYMAADSWKQLYENTLAQVKDGTIPMARLDDAVRRILRVKVLAGLFEKPAPKDRPGLPGLETLGSPEHRAVGREAVRKSLVLLKNDKGTLPLSPKARVLVAGDGADNIGKQSGGWTISWQGTGNRNDEFPGATSILGGIRDAVADAGGSVEFDVAGQYKTKPDVAIVVFGENPYAEFRGDVETLEYQPDQKQDLTLLKKLKDQGIPVVAVFLSGRPMWVNPELNASDAFVAAWLPGTEGGGVADVLFTDKAGKVQYDFAGKLSYSWPRTAAQTTVNRGDADYNPLFAYGYGLTYKDKSKVGTLPEESGVPAEARQNAGIYFRAGALRLPGRFL
modifications: truncated; signal peptide F-10T
[1]
  Fold Improvement over Control Variant: ++ (++ = 1.1 to 2.0 fold improvement over control Variant No. 366)

B5: 425 (protein)
chain: SARITQEGAAPAAMLHPEKWPRPATQRLIDPAVEKRVDALLKQLSVEEKVGQVIQGDIGTITPEDLRKYPLGSILAGGDSGPNGDDRAPPKEWLDLADAFYRVSLEKRPGHTPIPVLFGIDAVHGHNNIGSATIFPHNIALGMTRDTELLRRIGEVTAEEMAATGIDWTFAPALSVPRDDRWGRTYEGFSEDPEIVASYSAAIVEGFQGKYGSKDFMAPGRAVACAKHFLADGGTDQGRDQGDARISEDELIRIHNAGYPPAIDAGVLTVMASFSSWQGIKHHGHKQLLTDVLKGQMGFNGFIVGDWNAHDQVPGCTKFNCPTSLIAGLDMYMAADSWKQLYENTLAQVKDGTIPMARLDDAVRRILRVKVLAGLFEKPAPKDRPGLPGLETLGSPEHRTVGREAVRKSLVLLKNDKGTLPLSPKARVLVAGDGADNIGKQSGGWTISWQGTGNRNDEFPGATSILGGIRDAVADAGGSVEFDVAGQYKTKPDVAIVVFGENPYAEFRGDVETLEYQPDQKQDLTLLKKLKDQGIPVVAVFLSGRPMWVNPELNASDAFVAAWLPGTEGGGVADVLFTDKAGKVQHDFAGKLSYSWPRTAAQTTVNRGDADYNPLFAYGYGLTYKDKSKVGTLPEESGVPAEARQNAGIYFRAGALRLPGRFL
modifications: truncated; signal peptide F-10T
[1]
  Fold Improvement over Control Variant: +++ (+++ = 2.1 to 3.0 fold improvement over control Variant No. 366)

B6: 426 (protein)
chain: SAAITQEGAAPAAMLHPEKWPRPATQRLIDPAVEKRVDALLKQLSVEEKVGQVIQGDIGTITPEDLRKYPLGSILAGGDSGPNGDDRAPPKEWLDLADAFYRVSLEKRPGHTPIPVLFGIDAVHGHNNIGSATIFPHNIALGMTRDPELLRRIGEVTAEEMAATGIDWTFAPALSVPRDDRWGRTYEGFSEDPEIVASYSAAIVEGFQGKYGSKDFMAPGRAVACAKHFLADGGTDQGRDQGDARISEDELIRIHNAGYPPAIDAGVLTVMASFSSWQGIKHHGHKQLLTDVLKGQMGFNGFIVGDWNAHDQVPGCTKFNCPTSLIAGLDMYMAADSWKQLYENTLAQVKDGTIPMARLDDAVRRILRVKVLAGLFEKPAPKDRPGLPGLETLGSPEHRTVGREAVRKSLVLLKNDKGTLPLSPKARVLVAGDGADNIGKQSGGWTISWQGTGNRNDEFPGATSILGGIRDAVADAGGSVEFDVAGQYKTKPDVAIVVFGEEPYAEFRGDVETLEYQPDQKQDLTLLKKLKDQGIPVVAVFLSGRPMWVNPELNASDAFVAAWLPGTEGGGVADVLFTDKAGKVQHDFAGKLSYSWPRTAAQTTVNRGDADYNPLFAYGYGLTYKDKSKVGTLPEESGVPAEARQNAGIYFRAGALRLPGRFL
modifications: truncated; signal peptide F-10T
[1]
  Fold Improvement over Control Variant: ++ (++ = 1.1 to 2.0 fold improvement over control Variant No. 366)
